B1: antibody 5317-4 (IgG1) (antibody, V domains shown)
VH: QVQLRLWGAGLLKPSETLSLTCAVSGGSFIDYYWTWIRQPPGKGLEWIGEINHFGGSGYNPSLKSRVSISVDTSKNQFSLRLNSVTAADTAIYYCARKPLLHSSVNPGAFDIWGQGTMLTVSS
VL: EIVLTQSPGTLSLSPGERAALSCRASQSVAGTYLAWYQQKPGQAPRLLIYGASSRATGIPDRFSGSGSGTDFTLTISRLEPEDFAVYYCQQYATSPRTFGQGTQLEIR
B2: antibody 5317-10 (IgG1) (antibody, V domains shown)
VH: EVQLVQSGAEVKKPGESLTISCKASGYRFTSNWITWVRQMPGKGLEWMGRIDPDDPYSNSSPSFQGHATLSLDKAINTAYLHWSSLKASDTAMYYCARVNRVGDGPDFWGQGTLVTVSS
VL: DIVMTQSPLSLPVTPGEPASISCRSSQSLLFGNGYTYLNWYLQKPGQSPQLLIYLGSNRASGVPDRFSVSGSGTDFTLIISRVEAEDVGVYFCMQALQTPWTFGQGTKVEIK

Legend:
[1] = target: SARS-CoV-2 RBD-SD1 (residues 306-577) (Severe acute respiratory syndrome …, UniProt P0DTC2); experiment: BLI
[2] = target: SARS-CoV-2 S1 protein (Sino Biological) (SARS-CoV-2, ancestral (Wuhan-Hu-1) …, UniProt P0DTC2); experiment: ELISA

Binder | binding result [1] | binding result [2]
B1 | binds | 
B2 |  | binds
